Source: paper PMC10044410 (Cell, 2023)
One block for each binder: values may come before it.

Experiments:
[1] = target: GroEL (wild type, recombinant, from pET22b-groL) (E. coli, UniProt P0A6F5 1-548); experiment: SEC
[2] = target: GroEL (untagged, from pET15b, for quantitative binding studies) (E. coli, UniProt P0A6F5 1-548); experiment: other fluorescence titration
[3] = target: GroEL_(R452A/E461A/S463A/V464A) (E. coli, UniProt P0A6F5 1-548, R452A | E461A | S463A | V464A); experiment: SEC

binding result [1]: binds
B1: Citrate synthase (CS) from pig hearts, chemically unfolded (enzyme, UniProt P00889 28-464, looked up)
chain: ASSTNLKDILADLIPKEQARIKTFRQQHGNTVVGQITVDMMYGGMRGMKGLVYETSVLDPDEGIRFRGYSIPECQKMLPKAKGGEEPLPEGLFWLLVTGQIPTEEQVSWLSKEWAKRAALPSHVVTMLDNFPTNLHPMSQLSAAITALNSESNFARAYAEGIHRTKYWELIYEDCMDLIAKLPCVAAKIYRNLYREGSSIGAIDSKLDWSHNFTNMLGYTDAQFTELMRLYLTIHSDHEGGNVSAHTSHLVGSALSDPYLSFAAAMNGLAGPLHGLANQEVLVWLTQLQKEVGKDVSDEKLRDYIWNTLNSGRVVPGYGHAVLRKTDPRYTCQREFALKHLPHDPMFKLVAQLYKIVPNVLLEQGKAKNPWPNVDAHSGVLLQYYGMTEMNYYTVLFGVSRALGVLAQLIWSRALGFPLERPKSMSTDGLIKLVDSK

Ki [2]: 47 nM
B2: GroES (for quantitative binding studies, His tag removed) (natural protein, E. coli)
chain: MNIRPLHDRVIVKRKEVETKSAGGIVLTGSAAAKSTRGEVLAVGNGRILENGEVKPLDVKVGDIVIFNDGYGVKSEKIDNEEVLIMSESDILAIVEA

binding result [3]: binds
B3: CnoX (wild type, recombinant, from pET22b-cnoX) (natural protein, E. coli)
chain: MSVENIVNINESNLQQVLEQSMTTPVLFYFWSERSQHCLQLTPILESLAAQYNGQFILAKLDCDAEQMIAAQFGLRAIPTVYLFQNGQPVDGFQGPQPEEAIRALLDKVLPREEELKAQQAMQLMQESNYTDALPLLKDAWQLSNQNGEIGLLLAETLIALNRSEDAEAVLKTIPLQDQDTRYQGLVAQIELLKQAADTPEIQQLQQQVAENPEDAALATQLALQLHQVGRNEEALELLFGHLRKDLTAADGQTRKTFQEILAALGTGDALASKYRRQLYALLY
